Non-standard residues stand in square brackets, D forms with d. No end group written: not given here. pS = N[C@@H](COP(=O)(O)O)C(=O)O
Key:
[1] = biological target: LC3A protein (recombinant) (UniProt Q9H492 1-121); experiment: ITC
[2] = biological target: -L1 protein (recombinant) (UniProt Q9H0R8 1-117); experiment: ITC
[3] = biological target: T1, LC3B protein (recombinant) (UniProt Q9GZQ8 1-120); experiment: NMR
[4] = biological target: T2, GABARAP protein (recombinant) (UniProt O95166 1-117); experiment: NMR; GABARAP residue I32
T2 sequence (O95166 whole entry): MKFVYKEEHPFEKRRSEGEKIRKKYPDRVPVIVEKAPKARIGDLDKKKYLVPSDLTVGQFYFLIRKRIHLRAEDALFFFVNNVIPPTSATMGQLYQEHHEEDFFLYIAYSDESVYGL

[5] = biological target: T1, LC3B protein (recombinant); experiment: ITC
[6] = biological target: T2, GABARAP protein (recombinant); experiment: ITC

-L1 protein (recombinant), sequence (Q9H0R8 whole entry): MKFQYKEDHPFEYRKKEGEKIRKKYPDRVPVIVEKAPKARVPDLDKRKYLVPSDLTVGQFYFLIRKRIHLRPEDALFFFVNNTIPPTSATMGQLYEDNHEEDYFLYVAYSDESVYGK

| Binder | Kd [1] | Kd [2] | Kd [3] | Kd [4] | Kd [5] | Kd [6] |
| --- | --- | --- | --- | --- | --- | --- |
| EALN[pS]GVEYYWDQLNET [AMBRA1-LIR peptide, S1014 phosphorylated (P1)] | ~50 µM | 25 µM | 46 µM | 7 µM | – | – |
| EALNDGVEYYWDQLNET [AMBRA1-LIR peptide, D-phosphomimicked (PM)] | – | – | – | – | ~50 µM | 31 µM |
| EALNSGVEYYWDQLNET [AMBRA1-LIR peptide, unphosphorylated (P0)] | – | > 50 µM | 193 µM | 61 µM | – | – |
